The results in this text go back to IntAct's records for PubMed 34400613.

Sequences and labels used below:
B1: Ras GTPase-activating protein-binding protein 2 (Homo sapiens), Q9UN86 (parent)
chain: MVMEKPSPLLVGREFVRQYYTLLNKAPEYLHRFYGRNSSYVHGGVDASGKPQEAVYGQNDIHHKVLSLNFSECHTKIRHVDAHATLSDGVVVQVMGLLSNSGQPERKFMQTFVLAPEGSVPNKFYVHNDMFRYEDEVFGDSEPELDEESEDEVEEEQEERQPSPEPVQENANSGYYEAHPVTNGIEEPLEESSHEPEPEPESETKTEELKPQVEEKNLEELEEKSTTPPPAEPVSLPQEPPKAFSWASVTSKNLPPSGTVSSSGIPPHVKAPVSQPRVEAKPEVQSQPPRVREQRPRERPGFPPRGPRPGRGDMEQNDSDNRRIIRYPDSHQLFVGNLPHDIDENELKEFFMSFGNVVELRINTKGVGGKLPNFGFVVFDDSEPVQRILIAKPIMFRGEVRLNVEEKKTRAARERETRGGGDDRRDIRRNDRGPGGPRGIVGGGMMRDRDGRGPPPRGGMAQKLGSGRGTGQMEGRFTGQRR

The variants in this test derive from B1. To be noted: with ncap_sars2 N.
For the variant MVMEKPSPLLVGREAVRQYYTLLNKAPEYLHRAYGRNSSYVHGGVDASGKPQEAVYGQNDIHHKVLSLNFSECHTKIRHVDAHATLSDGVVVQVMGLLSNSGQPERKFMQTFVLAPEGSVPNKAYVHNDMFRYEDEVFGDSEPELDEESEDEVEEEQEERQPSPEPVQENANSGYYEAHPVTNGIEEPLEESSHEPEPEPESETKTEELKPQVEEKNLEELEEKSTTPPPAEPVSLPQEPPKAFSWASVTSKNLPPSGTVSSSGIPPHVKAPVSQPRVEAKPEVQSQPPRVREQRPRERPGFPPRGPRPGRGDMEQNDSDNRRIIRYPDSHQLFVGNLPHDIDENELKEFFMSFGNVVELRINTKGVGGKLPNFGFVVFDDSEPVQRILIAKPIMFRGEVRLNVEEKKTRAARERETRGGGDDRRDIRRNDRGPGGPRGIVGGGMMRDRDGRGPPPRGGMAQKLGSGRGTGQMEGRFTGQRR [F15A;F33A;F124A], the “effect of a mutation on the interaction” value is reported as “disrupting interaction strength”.
The value for MVMEKPSPLLVGREAVRQYYTLLNKAPEYLHRFYGRNSSYVHGGVDASGKPQEAVYGQNDIHHKVLSLNFSECHTKIRHVDAHATLSDGVVVQVMGLLSNSGQPERKFMQTFVLAPEGSVPNKFYVHNDMFRYEDEVFGDSEPELDEESEDEVEEEQEERQPSPEPVQENANSGYYEAHPVTNGIEEPLEESSHEPEPEPESETKTEELKPQVEEKNLEELEEKSTTPPPAEPVSLPQEPPKAFSWASVTSKNLPPSGTVSSSGIPPHVKAPVSQPRVEAKPEVQSQPPRVREQRPRERPGFPPRGPRPGRGDMEQNDSDNRRIIRYPDSHQLFVGNLPHDIDENELKEFFMSFGNVVELRINTKGVGGKLPNFGFVVFDDSEPVQRILIAKPIMFRGEVRLNVEEKKTRAARERETRGGGDDRRDIRRNDRGPGGPRGIVGGGMMRDRDGRGPPPRGGMAQKLGSGRGTGQMEGRFTGQRR [F15A] was “decreasing interaction strength”.
With MVMEKPSPLLVGREAVRQYYTLLNKAPEYLHRAYGRNSSYVHGGVDASGKPQEAVYGQNDIHHKVLSLNFSECHTKIRHVDAHATLSDGVVVQVMGLLSNSGQPERKFMQTFVLAPEGSVPNKFYVHNDMFRYEDEVFGDSEPELDEESEDEVEEEQEERQPSPEPVQENANSGYYEAHPVTNGIEEPLEESSHEPEPEPESETKTEELKPQVEEKNLEELEEKSTTPPPAEPVSLPQEPPKAFSWASVTSKNLPPSGTVSSSGIPPHVKAPVSQPRVEAKPEVQSQPPRVREQRPRERPGFPPRGPRPGRGDMEQNDSDNRRIIRYPDSHQLFVGNLPHDIDENELKEFFMSFGNVVELRINTKGVGGKLPNFGFVVFDDSEPVQRILIAKPIMFRGEVRLNVEEKKTRAARERETRGGGDDRRDIRRNDRGPGGPRGIVGGGMMRDRDGRGPPPRGGMAQKLGSGRGTGQMEGRFTGQRR [F15A;F33A] the entry was “decreasing interaction strength”.
